Entries after “also recorded” stand apart in the source; their conditions may differ.
Tests used:
[1] = system: AML primary human samples; test: Primary AML bone marrow samples treated in vitro for 7 days (Lin- cells, LSC, CD99- HSPC); assay type: cell-based; details: for cell death of AML cells (blasts, LSCs), comparison between treatments: 7-day treatment of AML primary human samples
Description: Primary and secondary AML samples were obtained from patients enrolled in the clinical trial AMLCG-2008 (http://clinicaltrial.gov identifier NCT01382147), the AML register protocol of the AML Register and Biomaterial Database of the German Leukemia Study Alliance, the AML register protocol of the German AML Cooperative Group Version 2.0 from Jan. 6, 2011, the AML register protocol of the German AML study group, or treated at the III. Medical Department at the Technical University of Munich after approval of the local ethics committee (approval no. 62/16 S from Feb. 10, 2016 to 2790/10 from Apr. 30, 2010). Informed consent was obtained from patients at study entry.
To examine how targeting TNF/ LT-α signaling can be most effectively used to treat AML, the inventors treated AML primary human samples in vitro. LT-α and a-TNF (Adalimumab) were evaluated, alone or in combination. Moreover, LT-α was tested in combination with the standard AML chemotherapeutic Cytarabine (CYT), the clinical SMAC mimetic Birinapant, and the clinical pan-caspase inhibitor Emricasan. Drug concentrations were determined after titration in healthy bone marrow samples and AML cell lines (data not shown). After 7-day-treatment, cell viability was evaluated, using CD99 to discriminate between non-leukaemogenic HSPCs (CD99^−) and LSCs (FIG. 4c).

FLT3-ITD-transduced BM = test: Colony forming cell assay (CFU-GEMM) of FLT3-ITD-transduced bone marrow; assay type: cell-based, mouse; details: WT FLT3-ITD transduced cultures; rm LT-α 100 ng/ml, rm TNF 100 ng/ml, Etanercept 50 ng/ml; counted after 10 days; vs control
Description: For colony forming cell assays, all duplicate cultures were performed in 35 mm petri dishes in murine methylcellulose medium (Methocult, Stem Cell Technologies). BM cells of unchallenged or 5-FUchallenged mice were plated in M3434. […] For analysis of colony forming units (CFU) cell viability, colonies were grown for 10 days in the presence of propidium iodide (PI) (0.8 μg/ml; Sigma) and representative CFU-GEMM were imaged using a Keyence BZ-9000 (Biorevo) fluorescence microscope.

[2] = system: WT FLT3-ITD mice (FLT3-ITD-driven myeloproliferative disorder)
Description: For treatment, two- and eight-weeks post transplantation animals were randomly divided into groups of eight. Mice were i.v. injected twice per week with either isotype control (5 mg/kg; RTK2071; Biolegend), Etanercept (Enbrel®, 50 ng/ml; Pfizer), rm LT-α (250 μg/kg; Cusabio), a-TNF (5 mg/kg; MP6-XT22; Biolegend), or rm LT-α plus a-TNF.
Mice with disease were sacrificed. Peripheral blood white blood cell counts (WBC) were measured by scil Vet abc (scil animal care company). Single-cell suspensions of indicated tissue samples were prepared and red blood cells of peripheral blood were lysed before analysis. Cells were pre-incubated with Fc-block and subsequently stained with fluorescently labeled antibodies. Dead cells were excluded by PI (Sigma) or Zombie Aqua™ Fixable Viability Kit (Biolegend) staining according to the manufacturer's instructions.

AML cell lines = test: Relative number of cells in AML cell lines after treatment (flow cytometry); assay type: cell-based, human; details: panel of nine AML cell lines; 7 days; vs untreated cells
Description: All centrifugation steps were performed at 400×g.

K562 = test: Relative number of K562 CML cells after treatment; details: alone or with imatinib 1 or 10 μM; vs untreated cells
Description: As a model for CML, LT-α was tested for potential effects on the cell line K562, either separately against the standard therapy imatinib (in concentrations of 1 or 10 μM) alone, or in combination (FIG. 5).

healthy BM [3] = system: healthy BM
Description: (§1) Human primary samples: Bone marrow mononuclear cells (BMMC) were isolated from heparinized bone marrow samples or bone chips by centrifugation over a Ficoll-Hypaque layer (Biochrom) of 1.077 g/ml density. Cells were harvested and used directly for immunephenotyping or cultured in IMDM (Gibco) supplemented with 20% fetal calf serum (FCS; PAN-Biotech), penicillin/streptomycin 0.05 mM, L-glutamine 2 mM, and 2-mercaptoethanol 0.05 mM (Gibco) on EL08-1D2 stromal cells.
(§2) For flow cytometry analysis after treatment, BM cells or AML cell lines were cultured as described above for 7 days in the presence of the following cytokines and inhibitors if indicated and not stated otherwise: Etanercept (Enbrel®; 50 ng/ml; Pfizer), recombinant human (rh) LT-α (100 ng/ml; R&D), rh TNF (100 ng/ml; R&D), Emricasan (2.5 nM; SelleckChem), Birinapant (10 nM; SelleckChem), Cytarabine (100 nM), a-LTα-Ig (10 μg/ml; 359-238-8; Biolegend), Adalimumab (Humira®; 500 ng/ml; Abbvie), and respective isotype controls Mouse IgG1, κ (MOPC-21; Biolegend), and Ultra-LEAF™ purified Human IgG1 (QA16A12; Biolegend).
(§3) Non-leukemia control samples were collected from individuals who underwent bone marrow aspiration for diagnostic purposes and in whom subsequently a hematological disease was ruled out. Healthy controls were isolated from the femoral heads of patients who underwent surgical hip replacement.
(§4) Antibodies used to separate human hematopoietic cell subsets, for immunephenotyping and intracellular protein expression analysis: Fluorescently labelled antibodies against Lineage Cocktail (Cat #348801; 348703), CD45RA (HI100), CD34 (581), CD38 (HB-7), CD99 (3B2/TA8), CD123 (5B11) were obtained from Biolegend. Flow analysis was performed on a BD FACS Canto II (BD Biosciences) and data were analyzed using FlowJo software (Tree Star).

healthy BM [4] = test: Hematopoietic cell subsets in healthy bone marrow treated with LT-α; details: 100 ng/ml LT-α
Description: as §1, §2, §3, §4

[5] = WT FLT3-ITD mice, treated twice per week
[6] = compared to controls, data not shown

CC[C@H](NC(=O)[C@H](C)NC)C(=O)N1C[C@@H](O)C[C@H]1Cc1c(-c2[nH]c3cc(F)ccc3c2C[C@@H]2C[C@H](O)CN2C(=O)[C@H](CC)NC(=O)[C@H](C)NC)[nH]c2cc(F)ccc12 [Birinapant, reference compound]
cell death of AML cells (blasts, LSCs), comparison between treatments [1]: better at promoting cell death, both of blasts and LSCs, than Cytarabine

C[C@H](NC(=O)C(=O)Nc1ccccc1C(C)(C)C)C(=O)N[C@@H](CC(=O)O)C(=O)COc1c(F)c(F)cc(F)c1F [Emricasan, reference compound]
cell death of AML cells (blasts, LSCs), comparison between treatments [1]: resistant to LT-α- and Birinapant-induced cell death

Etanercept
number of GEMM colonies (FLT3-ITD-transduced BM): increase
remission / disease outcome [2, 5]: rapidly succumbed to disease
Median survival ([2]; WT mice transplanted with FLT3-ITD-transduced WT BM, treated i.v. twice per week): 65 days
WBC counts [2, 6]: considerably elevated
hepato-splenomegaly [2, 6]: increased
latency [2, 6]: reduced
leukemic burden [2, 6]: elevated
number of primitive leukemic cells [2, 6]: drastically increased
number of AML cells (AML cell lines): not observed

adalimumab
number of AML cells (AML cell lines): drastic reduction

B1: LT-α: Lymphotoxin alpha polypeptide (SEQ ID No. 1/2); recombinant mouse LT-α used in mouse tests, recombinant human LT-α in human cell tests (protein, UniProt P01374 35-205, looked up)
Lymphotoxin-alpha: LPGVGLTPSAAQTARQHPKMHLAHSTLKPAAHLIGDPSKQNSLLWRANTDRAFLQDGFSLSNNSLLVPTSGIYFVYSQVVFSGKAYSPKATSSPLYLAHEVQLFSSQYPFHVPLLSSQKMVYPGLQEPWLHSMYHGAAFQLTQGDQLSTHTDGIPHLVLSPSTVFFGAFAL
modifications: mouse LT-α also used
effect on K562 cells (relative number of cells) (K562): significant effects; also recorded: kills blast cells
toxicity to healthy controls / healthy cells (healthy BM [3]): lacks any pronounced cytotoxicity
toxic effect on healthy bone marrow (healthy BM [4]; bone marrow samples from healthy control patients): not elicit any detectable toxic effect
healthy haematopoiesis (HSCs and myeloid progenitor subsets) (healthy BM [4]; healthy BM): sustained
number of GEMM colonies (FLT3-ITD-transduced BM): significantly reduced
cell death of AML cells (blasts, LSCs), comparison between treatments [1]: more effectively than the standard AML chemotherapeutic Cytarabine; also recorded: more efficient manner than a-TNF
non-leukaemogenic HSPCs (CD99-) ([1]; 7-day treatment, a-TNF = Adalimumab): promoted expansion
Lin- cells (bulk of AML blasts and healthy HSPCs) ([1]; 7-day treatment, rh LT-α 100 ng/ml): killed
LSCs in AML BM samples ([1]; 7-day treatment, rh LT-α 100 ng/ml, a-TNF = Adalimumab 500 ng/ml): killed
tolerability in vivo ([2]; WT FLT3-ITD mice, i.v. twice per week): well tolerated
remission / disease outcome [2, 5]: induced durable remissions
LSCs in FLT3-ITD-transplanted mice ([2]; treated twice per week): eradicates LSCs
number of AML cells (AML cell lines): significantly decreased
